# Residues, ends and D or L forms follow the SMILES beside them. *: point of attachment. AMC = Cc1cc(=O)oc2cc(N*)ccc12
# Experiments:
# PeDPP7 (MER278904) = target: T1, PeDPP7 (MER278904) (Porphyromonas endodontalis, UniProt C3JAQ3); assay: fluorescence of released aminomethylcoumarin, hydrolysis rate; type: biochemical; details: 20 µM substrate, 50 mM sodium phosphate pH 7.0, 5 mM EDTA, 37°C
# T1 construct: gene dpp7; 70-kDa single band; S46 family
# [1] = tested on: Cc1cc(=O)oc2cc(NC(=O)[C@H](Cc3ccc(O)cc3)NC(=O)[C@@H](N)CO)ccc12; assay: purified protein; details: 50 mM sodium phosphate pH 7.0, 5 mM EDTA, 0.1 M NaCl, 37°C
# Description: (§2) fluorescence of released aminomethylcoumarin, Michaelis-Menten fit on PeDPP5 (MER236725)
# [2] = tested on: Cc1cc(=O)oc2cc(NC(=O)[C@H](C)NC(=O)[C@@H](N)CCCCN)ccc12; assay: purified protein; details: 50 mM sodium phosphate pH 7.0, 5 mM EDTA, 0.1 M NaCl, 37°C
# Description: as §2
# [3] = tested on: Cc1cc(=O)oc2cc(NC(=O)[C@H](Cc3ccccc3)NC(=O)CN)ccc12; assay: purified protein; details: 50 mM sodium phosphate pH 7.0, 5 mM EDTA, 0.1 M NaCl, 37°C
# Description: as §2
# [4] = tested on: Cc1cc(=O)oc2cc(NC(=O)[C@H](Cc3ccc(O)cc3)NC(=O)[C@@H](N)CO)ccc12; assay: fluorescence of released aminomethylcoumarin, Michaelis-Menten fit; type: biochemical, Porphyromonas gingivalis; details: 50 mM sodium phosphate pH 7.0, 5 mM EDTA, 0.1 M NaCl, 37°C
# Description: (§1) fluorescence of released aminomethylcoumarin, Michaelis-Menten fit on PgDPP5
# [5] = tested on: Cc1cc(=O)oc2cc(NC(=O)[C@H](C)NC(=O)[C@@H](N)CCCCN)ccc12; assay: as above; type: biochemical, Porphyromonas gingivalis; details: 50 mM sodium phosphate pH 7.0, 5 mM EDTA, 0.1 M NaCl, 37°C
# Description: as §1
# [6] = tested on: Cc1cc(=O)oc2cc(NC(=O)[C@H](Cc3ccccc3)NC(=O)CN)ccc12; assay: as above; type: biochemical, Porphyromonas gingivalis; details: 50 mM sodium phosphate pH 7.0, 5 mM EDTA, 0.1 M NaCl, 37°C
# Description: as §1
# T1 sequence (C3JAQ3 3-710): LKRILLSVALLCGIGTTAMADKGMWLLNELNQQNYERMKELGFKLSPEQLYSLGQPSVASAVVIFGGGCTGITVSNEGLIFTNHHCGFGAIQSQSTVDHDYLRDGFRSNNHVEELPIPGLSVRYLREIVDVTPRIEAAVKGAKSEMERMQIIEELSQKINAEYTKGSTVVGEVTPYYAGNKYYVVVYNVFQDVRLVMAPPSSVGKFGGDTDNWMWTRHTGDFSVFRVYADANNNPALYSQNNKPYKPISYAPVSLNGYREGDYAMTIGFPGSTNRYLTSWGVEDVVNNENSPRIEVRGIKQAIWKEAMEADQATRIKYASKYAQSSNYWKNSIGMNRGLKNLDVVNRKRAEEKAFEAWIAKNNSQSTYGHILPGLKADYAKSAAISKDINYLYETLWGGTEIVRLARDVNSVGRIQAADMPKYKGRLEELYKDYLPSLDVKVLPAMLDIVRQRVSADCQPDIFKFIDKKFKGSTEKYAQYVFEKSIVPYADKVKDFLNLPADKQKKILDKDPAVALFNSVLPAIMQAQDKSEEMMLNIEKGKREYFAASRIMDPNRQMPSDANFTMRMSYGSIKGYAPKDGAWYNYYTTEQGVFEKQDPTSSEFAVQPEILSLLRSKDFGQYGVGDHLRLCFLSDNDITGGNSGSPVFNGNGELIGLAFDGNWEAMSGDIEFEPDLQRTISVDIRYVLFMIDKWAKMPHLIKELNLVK
molecule,measurement,setting,value
Cc1cc(=O)oc2cc(NC(=O)[C@H](C)NC(=O)[C@@H](N)CCCCN)ccc12 [Lys-Ala-MCA] (H-Lys-Ala-{AMC}),"fluorescence of released aminomethylcoumarin, hydrolysis rate",PeDPP7 (MER278904),"slowly hydrolyzed Leu-Gln-, Lys-Ala-, Leu-Arg-, and Ala-Asn-MCA"
PeDPP5 (MER236725) (Porphyromonas endodontalis ATCC 35406),Km,[1],257 ± 9 µM
same,kcat,[1],3470 ± 87 s⁻¹
same,kcat/Km,[1],1.35e+07 M⁻¹ s⁻¹
same,Km,[2],110 ± 7 µM
same,kcat,[2],21200 ± 932 s⁻¹
same,kcat/Km,[2],1.94e+08 M⁻¹ s⁻¹
same,Km,[3],993 ± 176 µM
same,kcat,[3],10400 ± 1640 s⁻¹
same,kcat/Km,[3],1.05e+07 M⁻¹ s⁻¹
PgDPP5 (Porphyromonas gingivalis ATCC 33277),Km,[4],296 ± 31 µM
same,kcat,[4],1330 ± 100 s⁻¹
same,kcat/Km,[4],4.49e+06 M⁻¹ s⁻¹
same,Km,[5],185 ± 21 µM
same,kcat,[5],1950 ± 165 s⁻¹
same,kcat/Km,[5],1.05e+07 M⁻¹ s⁻¹
same,Km,[6],396 ± 51 µM
same,kcat,[6],5640 ± 403 s⁻¹
same,kcat/Km,[6],1.3e+07 M⁻¹ s⁻¹
